Data on 17 substances can be found in patent publication US9999664B2, “HIV-1 gp120 mini V3 loop and uses thereof” (The Scripps Research Institute, priority 2011, dated 2018).

For test [1], the target named is HIV-1 JR-FL envelope (Env) on pseudovirus (HIV-1 JR-FL). As to the kind of experiment: cell-based or functional assay.
The target of test [2] is HIV-1 JR-CSF envelope (Env) on pseudovirus (HIV-1 JR-CSF) (UniProt P20871). As to the kind of experiment: cell-based or functional assay.
In test [3] the target is HIV-1 BaL envelope (Env) on pseudovirus (HIV-1 BaL). As to the kind of experiment: cell-based or functional assay.
Test [4] addresses gp120 (ELISA antigen of FIG. 3, strain not stated) (HIV-1, strain not stated). In words: ELISA on coated gp120, absorbance at 405 nm. (In general: In an ELISA, binding on a coated surface is turned into a signal by an enzyme label.)
The target in test [5] is gp120 JR-FL (HIV-1 JR-FL). As to the kind of experiment: gp120 ELISA.
Test [6] has as its target gp120 BaL (HIV-1 BaL). As to the kind of experiment: gp120 ELISA.
In test [7] the target is gp120 JR-CSF (HIV-1 JR-CSF) (UniProt P20871). As to the kind of experiment: gp120 ELISA.
The target in test [8] is HIV-1 SF162 envelope N332A on pseudovirus (HIV-1 SF162) (UniProt P19550). As to the kind of experiment: cell-based or functional assay.
Test [9] addresses HIV-1 BaL envelope N301A on pseudovirus (HIV-1 BaL). In words: cell-based or functional assay.
For test [10], the target named is HIV-1 ADA envelope N301A on pseudovirus (HIV-1 ADA). As to the kind of experiment: cell-based or functional assay.
For test [11], the target named is HIV-1 SF162 envelope N301A on pseudovirus (HIV-1 SF162) (UniProt P19550). In words: cell-based or functional assay.
For test [12], the target named is HIV-1 JRFL envelope N332A on pseudovirus (HIV-1 JR-FL). As to the kind of experiment: cell-based or functional assay.
Test [13] addresses HIV-1 ADA envelope N332A on pseudovirus (HIV-1 ADA). As to the kind of experiment: cell-based or functional assay.
The target of test [14] is HIV-1 JRFL envelope N301A on pseudovirus (HIV-1 JR-FL). As to the kind of experiment: cell-based or functional assay.
For test [15], the target named is HIV-1 92RW020 envelope N332A on pseudovirus (HIV-1 92RW020). As to the kind of experiment: cell-based or functional assay.
In test [16] the target is HIV-1 JRCSF envelope N301A on pseudovirus (HIV-1 JR-CSF) (UniProt P20871). As to the kind of experiment: cell-based or functional assay.
Test [17] has as its target HIV-1 JRCSF envelope N332A on pseudovirus (HIV-1 JR-CSF) (UniProt P20871). As to the kind of experiment: cell-based or functional assay.
The target of test [18] is HIV-1 BaL envelope N332A on pseudovirus (HIV-1 BaL). As to the kind of experiment: cell-based or functional assay.
Test [19] addresses HIV-1 JR-FL envelope (Env) on pseudovirus (HIV-1 JR-FL).
Test [20] deals with JR-FL core + mini-V3. As to the kind of experiment: ELISA on coated antigen, OD 405.
For test [21], the target named is HIV-1YU2 Env on the surface of transfected 293T cells (Human immunodeficiency virus 1, strain YU2). As to the kind of experiment: flow cytometry on HIV-1YU2 Env-transfected 293T cells, MFI. On the technique in general: A flow cytometer gives signals particle by particle.
For test [22], the target named is engineered outer domain mini-V3 (eODmV3), glycosylated gp120 outer domain construct (HIV-1 (base strain HxB2; mini-V3 based on JR-FL)). As to the kind of experiment: ELISA of IgG PGT 128 (FIG. 13).
Test [23] deals with HIV-1JR-FL Env trimers on the surface of transfected 293T cells (Human immunodeficiency virus 1, strain JR-FL). As to the kind of experiment: JR-FL cell surface binding, flow cytometry on transfected 293T cells.
The target in test [24] is HIV-1 JR-FL envelope (Env) on pseudovirus (HIV-1 JR-FL). This is another data set of the same source.

pEC50: −log10 of the molar value. A value given as a limit tells only on which side of the number the result lay.

As for “PGT 128 IgG variant HC K100gA (antibody)”, the results for the Fold change in neutralization (IC50 variant/IC50 WT antibody) in test [1], in test [2] and in test [3] were greater than 3000 fold, 142 fold and 1700 fold, respectively. In addition, the EC50 (read off the curve) (in general, the midpoint of the concentration-response curve) in [4] stood at 1 µg/mL. Besides, the figures for the fold change in gp120 binding (EC50 variant/EC50 WT) in [5] and in [6] were 22.3 fold and 28 fold, respectively.

PGT 128 IgG variant HC Y52eA (antibody): the Fold change in neutralization (IC50 variant/IC50 WT antibody) in test [1] was 21.1 fold; in test [2], 2.1 fold; in [3], 12.9 fold. For the same substance, the fold change in gp120 binding (EC50 variant/EC50 WT) worked out at 0.7 fold in [5], 1.2 fold in [7] and 0.9 fold in [6].

As for “PGT 128 IgG variant HC W100eA (antibody)”, the Fold change in neutralization (IC50 variant/IC50 WT antibody) was greater than 3000 fold in test [1], 29.7 fold in test [2] and 658 fold in test [3]. In [4], this substance showed a 50% effective concentration (EC50 (read off the curve)) of 0.5 µg/mL. Besides, the fold change in gp120 binding (EC50 variant/EC50 WT) in [5] is 9.4 fold; in test [7] it was 17.4 fold; in test [6], 15 fold.

PGT 128 IgG (antibody): the fold change in IC50 of variant envelope compared to WT envelope in test [8], in test [9], in [10], in test [11], in test [12] and in [13] was greater than 200 fold in each case. In addition, the fold change in IC50 of variant envelope compared to WT envelope in test [14] is greater than 200 fold; in [15], 1.6 fold; in test [16], 10.7 fold; in test [17], 1.4 fold; in [18] it was greater than 200 fold. For the same substance, the EC50 (read off the curve) in [4] is 0.04 µg/mL; in [20], 2 nM; in [21], 8 nM. Besides, the IC50 (JR-FL neutralization) in test [19] was determined as 0.09 nM. In addition, the apparent affinity in test [22] was found to be 46 nM. The negative logarithm of the EC50 (pEC50) (as a rule, the EC50 on a negative log10 scale, so that one unit is a factor of ten) in test [23] is 8.55. The IC50 (read off the curve; HIV-1JR-FL pseudovirus) in test [24] amounted to 0.01 µg/mL.

On to PGT 128 IgG variant HC W52fA (antibody), for which the Fold change in neutralization (IC50 variant/IC50 WT antibody) was 34.5 fold in [1], 3.9 fold in test [2] and 29.5 fold in test [3]. Also, the fold change in gp120 binding (EC50 variant/EC50 WT) came out at 1 fold in test [5], 1.5 fold in test [7] and 1.5 fold in [6].

On to PGT 128 IgG variant HC D27A (antibody), for which the figures for the Fold change in neutralization (IC50 variant/IC50 WT antibody) in [2] and in test [3] were 0.9 fold and 1.6 fold, respectively. The fold change in gp120 binding (EC50 variant/EC50 WT) in test [5] turned out to be 1 fold; in test [7], 1.1 fold; in test [6], 1.1 fold.

As for PGT 128 IgG variant HC D72A (antibody), the values for the Fold change in neutralization (IC50 variant/IC50 WT antibody) in test [2] and in test [3] were 1 fold and 1.2 fold, respectively. The results for the fold change in gp120 binding (EC50 variant/EC50 WT) in [5], in [7] and in test [6] were 0.7 fold, 0.9 fold and 0.7 fold, respectively.

Regarding PGT 128 IgG variant HC H52aA (antibody), the Fold change in neutralization (IC50 variant/IC50 WT antibody) came to 146 fold in test [1], 2.4 fold in test [2] and 9.8 fold in [3]. In addition, in test [4], the EC50 (read off the curve) was determined as 0.09 µg/mL. Besides, the figures for the fold change in gp120 binding (EC50 variant/EC50 WT) in test [5], in test [7] and in [6] were 2.8 fold, 64 fold and 2.4 fold, respectively.

For the substance PGT 127 Fab, in [19], the IC50 (JR-FL neutralization) is 14.6 nM. Moreover, the pEC50 in test [23] is 7.90.

As for PGT 128 Fab, the IC50 (JR-FL neutralization) in test [19] is 6.3 nM. Also, the pEC50 in test [23] is 7.99.

As to 2G12 IgG (antibody), in test [19], the IC50 (JR-FL neutralization) was determined as 8.5 nM. The pEC50 in test [23] was 7.94.

PGT 128 IgG variant HC H59A (antibody): the Fold change in neutralization (IC50 variant/IC50 WT antibody) came out at 12.4 fold in test [1], 6.8 fold in [2] and 11.5 fold in test [3]. The fold change in gp120 binding (EC50 variant/EC50 WT) was determined as 0.8 fold in test [5], 1 fold in [7] and 1 fold in test [6].

Consider PGT 128 IgG variant HC R54A (antibody), for which the Fold change in neutralization (IC50 variant/IC50 WT antibody) stood at 0.6 fold in [2] and 2.3 fold in test [3]. In addition, the fold change in gp120 binding (EC50 variant/EC50 WT) was 0.5 fold in [5], 0.9 fold in test [7] and 0.6 fold in [6].

In test [4], 128 (-ASYWNR) (antibody) returned an EC50 (read off the curve) of 0.7 µg/mL. Further, the IC50 (read off the curve; HIV-1JR-FL pseudovirus) in [24] is 0.7 µg/mL.

Regarding PGT 128 IgG variant HC A30S (antibody), the results for the Fold change in neutralization (IC50 variant/IC50 WT antibody) in test [2] and in test [3] were 0.9 fold and 1.4 fold, respectively. For the same substance, the fold change in gp120 binding (EC50 variant/EC50 WT) is 0.7 fold in [5], 0.8 fold in test [7] and 0.6 fold in test [6].

With PGT 127 IgG (antibody), the fold change in IC50 of variant envelope compared to WT envelope in test [8], in [9], in [10], in test [11], in test [12] and in test [13] was greater than 200 fold in each case. The fold change in IC50 of variant envelope compared to WT envelope in test [14] is greater than 200 fold; in test [15], 6.3 fold; in test [16], greater than 250 fold; in [17] it was greater than 200 fold; in test [18], greater than 200 fold. Also, the half-maximal effective concentration (EC50 (read off the curve)) in test [4] came to 0.08 µg/mL. In addition, the IC50 (JR-FL neutralization) in [19] was 0.18 nM. Also, in test [23], the negative logarithm of the EC50 (pEC50) was 8.51. The same substance returned an IC50 (read off the curve; HIV-1JR-FL pseudovirus) in [24] of 0.02 µg/mL.

With “PGT 128 IgG variant HC R100aA (antibody)”, the Fold change in neutralization (IC50 variant/IC50 WT antibody) amounted to 1.3 fold in test [2] and 2.1 fold in [3]. Moreover, the fold change in gp120 binding (EC50 variant/EC50 WT) stood at 1 fold in test [5], 0.7 fold in test [7] and 1.5 fold in test [6].
